Assay results as given in US20080221021A1 (published 2008).
Where no end group is shown, it is not given here.

Molecular target: T1, rat CRFBP C-terminally fused with a His6 sequence (rat, UniProt P24388 25-322)
T1 chain: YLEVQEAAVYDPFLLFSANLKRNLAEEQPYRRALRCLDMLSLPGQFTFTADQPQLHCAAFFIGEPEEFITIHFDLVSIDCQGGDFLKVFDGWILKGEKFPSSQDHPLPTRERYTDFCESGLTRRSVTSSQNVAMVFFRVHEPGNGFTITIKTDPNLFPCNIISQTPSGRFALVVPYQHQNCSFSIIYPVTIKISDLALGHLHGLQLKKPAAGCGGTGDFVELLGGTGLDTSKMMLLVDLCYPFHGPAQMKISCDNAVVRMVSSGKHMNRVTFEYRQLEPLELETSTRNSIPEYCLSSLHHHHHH
Experiment: competition binding

IC50: 0.54 nM
Binder: SEEPPISLDLTFHLLREVLEMARAEQLAQQAHSNRKLMEII (not fully specified) [human/rat corticotropin-releasing factor]
